Measurements as given in IntAct's records for PubMed 24165923.

B1: R-spondin-1 (Homo sapiens), Q2MKA7 (parent)
chain: MRLGLCVVALVLSWTHLTISSRGIKGKRQRRISAEGSQACAKGCELCSEVNGCLKCSPKLFILLERNDIRQVGVCLPSCPPGYFDARNPDMNKCIKCKIEHCEACFSHNFCTKCKEGLYLHKGRCYPACPEGSSAANGTMECSSPAQCEMSEWSPWGPCSKKQQLCGFRRGSEERTRRVLHAPVGDHAACSDTKETRRCTVRRVPCPEGQKRRKGGQGRRENANRNLARKESKEAGAGSRRRKGQQQQQQQGTVGPLTSAGPA

Variants of: B1
Conditions: with znrf3_human ZNRF3, Q9ULT6
znrf3_human ZNRF3, Q9ULT6, sequence (Q9ULT6 whole entry): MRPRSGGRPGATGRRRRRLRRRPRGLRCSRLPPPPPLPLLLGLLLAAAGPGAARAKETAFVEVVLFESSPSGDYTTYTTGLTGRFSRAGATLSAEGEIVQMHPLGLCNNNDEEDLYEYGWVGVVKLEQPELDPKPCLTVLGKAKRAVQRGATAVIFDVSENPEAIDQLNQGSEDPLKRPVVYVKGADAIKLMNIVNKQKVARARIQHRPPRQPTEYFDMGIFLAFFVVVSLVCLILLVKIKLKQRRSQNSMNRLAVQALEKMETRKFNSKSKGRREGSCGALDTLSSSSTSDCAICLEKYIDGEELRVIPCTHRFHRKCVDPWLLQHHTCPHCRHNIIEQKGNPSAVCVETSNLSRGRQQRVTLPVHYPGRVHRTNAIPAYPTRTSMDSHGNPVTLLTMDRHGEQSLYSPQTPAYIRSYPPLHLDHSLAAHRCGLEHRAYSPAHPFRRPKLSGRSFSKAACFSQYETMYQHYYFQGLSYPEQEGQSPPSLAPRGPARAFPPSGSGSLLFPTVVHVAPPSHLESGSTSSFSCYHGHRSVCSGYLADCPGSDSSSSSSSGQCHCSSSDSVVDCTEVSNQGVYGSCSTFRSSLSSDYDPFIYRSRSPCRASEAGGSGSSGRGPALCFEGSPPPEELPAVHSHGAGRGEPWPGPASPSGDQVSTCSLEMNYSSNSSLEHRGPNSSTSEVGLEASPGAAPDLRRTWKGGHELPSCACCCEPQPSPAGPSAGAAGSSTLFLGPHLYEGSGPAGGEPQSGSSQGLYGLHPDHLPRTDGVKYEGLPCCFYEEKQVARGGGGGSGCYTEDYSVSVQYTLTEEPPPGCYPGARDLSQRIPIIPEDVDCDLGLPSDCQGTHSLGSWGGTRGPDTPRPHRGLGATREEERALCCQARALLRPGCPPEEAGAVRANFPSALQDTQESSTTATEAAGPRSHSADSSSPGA
With R66A the “effect of a mutation on the interaction” value was “disrupting interaction”.
